In publication PMC5510000, “RPA activates the XPF‐ERCC1 endonuclease to initiate processing of DNA interstrand crosslinks”:

B1: simple fork (mixed)
DNA 1: ATAAATATTTTTTATTAATAATAGATCACCTTTCTTTCTCTTCTCCCCTT
DNA 2: TTCCCCTCCTCTCCTTCCTTCCTGATCTATTATTAATAAAAAATATTTAT
B2: fork + lagging strand (mixed)
DNA 1: B1 DNA 1
DNA 2: B1 DNA 2
?: GGAAGGAAGGAGAGGAGGGGAA

Target: RPA (full-length heterotrimer) (Homo sapiens, UniProt P27694;P15927;P35244 1-616;1-270;1-121)
Assay: fluorescence anisotropy; 1 mM MnCl2; Fluorescence anisotropy: nuclease buffer (composition and pH not in the material) with 1 mM MnCl2, RPA mixed 1:1 with 10 nM fluorescein-labelled DNA, 30 ul, room temperature, 10 min; sigmoidal fit
Settings: protein: recombinant, copies: 1;1;1

Chain of RPA (full-length heterotrimer) (P27694 whole entry, chain 1 of 3): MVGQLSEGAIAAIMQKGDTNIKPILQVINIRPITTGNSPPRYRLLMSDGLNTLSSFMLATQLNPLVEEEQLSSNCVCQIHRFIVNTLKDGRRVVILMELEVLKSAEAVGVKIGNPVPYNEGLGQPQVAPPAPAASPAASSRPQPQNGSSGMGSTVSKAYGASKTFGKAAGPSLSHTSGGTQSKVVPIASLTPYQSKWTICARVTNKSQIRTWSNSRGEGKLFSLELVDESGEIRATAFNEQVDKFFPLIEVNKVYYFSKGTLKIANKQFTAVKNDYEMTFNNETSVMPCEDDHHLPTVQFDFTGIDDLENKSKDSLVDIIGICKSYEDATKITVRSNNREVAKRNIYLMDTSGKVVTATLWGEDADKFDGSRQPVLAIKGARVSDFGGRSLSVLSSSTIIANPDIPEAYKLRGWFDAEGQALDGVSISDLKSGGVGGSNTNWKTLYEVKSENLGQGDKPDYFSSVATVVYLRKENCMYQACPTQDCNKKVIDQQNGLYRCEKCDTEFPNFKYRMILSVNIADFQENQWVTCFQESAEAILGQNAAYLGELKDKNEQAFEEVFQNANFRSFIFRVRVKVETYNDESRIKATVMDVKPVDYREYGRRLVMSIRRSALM
Chain of RPA (full-length heterotrimer) (P15927 whole entry, chain 2 of 3): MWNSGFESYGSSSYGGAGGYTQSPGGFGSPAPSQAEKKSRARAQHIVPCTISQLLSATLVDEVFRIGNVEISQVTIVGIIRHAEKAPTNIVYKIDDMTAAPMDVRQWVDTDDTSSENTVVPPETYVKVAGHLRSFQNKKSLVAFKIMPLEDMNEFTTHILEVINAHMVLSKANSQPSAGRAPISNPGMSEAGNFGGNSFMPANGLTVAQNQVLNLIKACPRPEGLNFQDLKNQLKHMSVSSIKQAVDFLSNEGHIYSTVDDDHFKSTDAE
Chain of RPA (full-length heterotrimer) (P35244 whole entry, chain 3 of 3): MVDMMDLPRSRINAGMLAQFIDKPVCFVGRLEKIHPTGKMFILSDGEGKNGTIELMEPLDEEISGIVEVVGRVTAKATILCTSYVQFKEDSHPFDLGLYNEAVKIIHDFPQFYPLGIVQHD

Binder | Kd (fork: 28 bp duplex, 22 nt 3' arm (strand 1) and 22 nt 5' arm (strand 2)) | Kd (fork 1:2 2:3, 28 bp parental duplex, 22 bp lagging arm, 22 nt 3'-ssDNA arm on strand 1)
B1 | 6.3 nM | 
B2 |  | 6.2 nM
